In the test the target is Drosophila melanogaster glutathione transferase epsilon 6 (Drosophila melanogaster). In words: crystal structure; DmGSTE6 at 15-20 mg/ml with 10 mM GSH, 20% PEG3350, 0.2 M sodium thiocyanate, sitting drop vapour diffusion at 288 K; 1.72 Å; homodimer.

The substance “Drosophila melanogaster glutathione transferase epsilon 6 (enzyme)” showed a stoichiometry N of 2.

One may read the stoichiometry N as a count of units in the complex or per binding partner.
